The results in this text go back to patent publication US20130136748A1 (Ablynx, published 2013).

Test [1] has as its target T1, human HER1 (human, UniProt P00533 25-1210).
T1 construct: also called EGFR; ErbB1
Briefly: FACS CHO-HER1, 2000 nM.

Test [2] concerns the target T2, hHER3 full length (human, UniProt P21860 20-1342).
T2 construct: On transfected CHO, CHO HER2/HER3, CHO EGFR/HER3 or CHO Flp-In cells; endogenous HER3 of MCF-7 and MDA-MB468 cells in the signalling assays; also called human HER3
The experiment in a line: FACS competition with HRG1-β1-EGF, CHO-HER3.

Test [3] has as its target T3, human HER2 (human, UniProt P04626 23-1255).
T3 construct: also called hHER2
Briefly: FACS, CHO-HER2.

Test [4] has as its target T2, hHER3 full length. Briefly: cell-based or functional assay.
Test [5] deals with T4, cHER3ECD (Maccaca fascicularis HER3 extracellular domain) (Macaca fascicularis, UniProt P21860 20-643 (human entry)).
T4 construct: also called cyno HER3ECD; cyno HER3-ECD
T4 chain: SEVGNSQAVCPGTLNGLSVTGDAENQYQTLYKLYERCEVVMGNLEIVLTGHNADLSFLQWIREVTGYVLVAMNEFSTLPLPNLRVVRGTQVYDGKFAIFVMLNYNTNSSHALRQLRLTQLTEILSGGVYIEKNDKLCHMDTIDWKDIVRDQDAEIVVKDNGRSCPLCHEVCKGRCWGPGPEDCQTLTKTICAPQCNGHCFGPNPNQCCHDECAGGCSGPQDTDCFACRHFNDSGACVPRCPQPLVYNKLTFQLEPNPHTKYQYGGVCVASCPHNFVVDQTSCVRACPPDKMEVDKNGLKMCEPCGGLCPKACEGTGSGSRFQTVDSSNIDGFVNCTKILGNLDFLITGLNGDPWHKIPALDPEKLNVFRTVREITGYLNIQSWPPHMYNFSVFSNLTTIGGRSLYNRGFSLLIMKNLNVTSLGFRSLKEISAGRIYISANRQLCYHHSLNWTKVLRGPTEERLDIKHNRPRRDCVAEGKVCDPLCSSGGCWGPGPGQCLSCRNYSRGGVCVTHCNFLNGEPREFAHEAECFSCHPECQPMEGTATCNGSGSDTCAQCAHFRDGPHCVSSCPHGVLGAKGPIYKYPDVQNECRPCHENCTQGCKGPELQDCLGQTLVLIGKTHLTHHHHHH
The experiment in a line: ELISA, coated cHER3-ECD.

The target in test [6] is T3, human HER2. Briefly: FACS CHO-HER2, 2000 nM.
In test [7] the target is T5, human HER3-Fc (R&D Systems, 348-RB) (human, UniProt P21860 20-643).
T5 construct: Bought; also called hHER3-Fc; Fc-HER3; Fc part of the bought chimera not given, not described
Briefly: SPR, HER3-Fc captured by anti-Fc.

The target in test [8] is T6, human HER4 (human, UniProt Q15303 26-1308). The experiment in a line: FACS CHO-HER4, 667 nM.
T6 sequence (Q15303 26-1308 limits assumed): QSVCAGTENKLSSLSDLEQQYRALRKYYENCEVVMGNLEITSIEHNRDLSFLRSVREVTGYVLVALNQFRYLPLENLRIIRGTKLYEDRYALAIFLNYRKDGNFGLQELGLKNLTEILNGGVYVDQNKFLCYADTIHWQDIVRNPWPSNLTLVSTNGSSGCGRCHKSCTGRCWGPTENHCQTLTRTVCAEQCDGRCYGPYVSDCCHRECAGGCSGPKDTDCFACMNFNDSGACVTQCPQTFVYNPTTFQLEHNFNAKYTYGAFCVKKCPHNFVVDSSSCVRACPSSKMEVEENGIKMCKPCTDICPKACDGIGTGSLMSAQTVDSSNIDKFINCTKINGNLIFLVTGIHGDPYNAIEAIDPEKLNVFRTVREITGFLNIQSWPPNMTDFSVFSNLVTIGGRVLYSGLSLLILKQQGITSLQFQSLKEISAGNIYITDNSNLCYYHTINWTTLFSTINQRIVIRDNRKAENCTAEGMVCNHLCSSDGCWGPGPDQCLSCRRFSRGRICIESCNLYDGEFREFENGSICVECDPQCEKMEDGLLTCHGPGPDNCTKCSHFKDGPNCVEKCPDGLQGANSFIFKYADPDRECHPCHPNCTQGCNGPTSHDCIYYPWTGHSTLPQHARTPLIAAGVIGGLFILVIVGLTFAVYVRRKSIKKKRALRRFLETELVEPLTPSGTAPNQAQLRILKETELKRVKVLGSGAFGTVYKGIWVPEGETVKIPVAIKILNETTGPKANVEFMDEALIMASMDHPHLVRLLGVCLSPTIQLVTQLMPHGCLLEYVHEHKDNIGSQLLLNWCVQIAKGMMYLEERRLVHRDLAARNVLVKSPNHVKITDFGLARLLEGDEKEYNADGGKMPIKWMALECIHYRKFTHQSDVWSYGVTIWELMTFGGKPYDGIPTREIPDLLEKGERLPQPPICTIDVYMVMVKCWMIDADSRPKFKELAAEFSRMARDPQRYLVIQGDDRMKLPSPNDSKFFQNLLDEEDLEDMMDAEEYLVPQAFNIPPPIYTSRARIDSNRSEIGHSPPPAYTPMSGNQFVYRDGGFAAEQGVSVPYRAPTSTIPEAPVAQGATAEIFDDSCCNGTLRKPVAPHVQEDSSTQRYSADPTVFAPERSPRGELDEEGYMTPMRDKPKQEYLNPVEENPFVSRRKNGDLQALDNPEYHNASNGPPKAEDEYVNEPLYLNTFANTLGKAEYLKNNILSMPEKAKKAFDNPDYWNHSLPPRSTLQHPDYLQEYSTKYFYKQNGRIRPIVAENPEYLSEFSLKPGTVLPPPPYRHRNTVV
Test [9] addresses T1, human HER1. Briefly: FACS CHO-HER1, 222 nM.
Test [10] deals with T2, hHER3 full length. Briefly: FACS, 400 nM, competitor 23F05-biotin.
The target of test [11] is T7, Chicken Her3 (AA1-25 human, AA26-642 chicken) (chicken (human signal sequence)).
T7 construct: Transmembrane and extracellular regions only, on transiently transfected HEK293 cells; also called full length extracellular chicken HER3
T7 chain: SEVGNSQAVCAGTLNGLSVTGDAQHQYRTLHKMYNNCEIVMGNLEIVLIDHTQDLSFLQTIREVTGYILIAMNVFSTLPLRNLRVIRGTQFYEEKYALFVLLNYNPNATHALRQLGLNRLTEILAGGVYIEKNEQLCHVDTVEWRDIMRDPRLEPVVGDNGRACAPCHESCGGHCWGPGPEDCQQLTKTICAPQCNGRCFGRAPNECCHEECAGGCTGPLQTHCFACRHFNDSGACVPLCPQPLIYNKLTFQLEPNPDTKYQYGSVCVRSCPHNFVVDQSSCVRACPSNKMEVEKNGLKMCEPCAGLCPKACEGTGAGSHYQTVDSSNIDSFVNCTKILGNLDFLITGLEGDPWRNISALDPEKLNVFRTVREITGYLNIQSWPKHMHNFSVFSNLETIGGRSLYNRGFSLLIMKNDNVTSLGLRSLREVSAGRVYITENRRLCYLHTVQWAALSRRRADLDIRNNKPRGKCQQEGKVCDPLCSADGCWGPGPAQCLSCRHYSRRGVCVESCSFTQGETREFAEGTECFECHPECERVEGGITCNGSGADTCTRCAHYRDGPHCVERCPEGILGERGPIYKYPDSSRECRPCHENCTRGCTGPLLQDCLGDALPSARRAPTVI
The experiment in a line: FACS, HEK293 with chicken HER3.

Test [12] concerns the target T3, human HER2. Briefly: FACS CHO-HER2, 222 nM.
Test [13] has as its target T2, hHER3 full length. The experiment in a line: FACS, 400 nM, competitor 18E08-biotin.
Test [14] has as its target T6, human HER4. Briefly: FACS CHO-HER4, 222 nM.
Test [15] has as its target T6, human HER4. Briefly: FACS CHO-HER4, 2000 nM.
For test [16], the target named is T2, hHER3 full length. The experiment in a line: FACS, 400 nM, competitor 04C07-biotin.
In test [17] the target is T1, human HER1. Briefly: FACS, CHO-HER1.
For test [18], the target named is T3, human HER2. The experiment in a line: FACS CHO-HER2, 667 nM.
Test [19] concerns the target T2, hHER3 full length. The experiment in a line: FACS, 400 nM, competitor 17C08-biotin.
Test [20] addresses T2, hHER3 full length. Briefly: FACS, 400 nM, competitor 04F10-biotin.
For test [21], the target named is T1, human HER1. Briefly: FACS CHO-HER1, 667 nM.
Test [22] addresses T6, human HER4. Briefly: FACS, CHO-HER4.
Test [23] addresses T2, hHER3 full length. The experiment in a line: cell-based or functional assay. This is another data set of the same source.
Test [24] has as its target T2, hHER3 full length. Briefly: FACS, 400 nM, competitor 21B02-biotin.
Test [25] concerns the target T8, hHER3 ECD (human HER3 extracellular domain) (human, UniProt P21860 20-643).
T8 construct: also called recombinant HER3-ECD
The experiment in a line: ELISA, coated hHER3-ECD.

Test [26] addresses T5, human HER3-Fc (R&D Systems, 348-RB). Briefly: 18G11 competition alphascreen.
Test [27] deals with T8, hHER3 ECD (human HER3 extracellular …). Briefly: SPR off rate.
Test [28] deals with T2, hHER3 full length. Briefly: cell-based or functional assay. The source holds these as a separate data set.
Test [29] has as its target T5, human HER3-Fc (R&D Systems, 348-RB). Briefly: HRG competition alphascreen.

Where only a bound is given, the exact number is not on record here.

B1: 23F05 (VHH)
VHH: EVQLVESGGGLVQAGGSLRLSCAASGFTFDGYAIGWFRQAPGKEREGVSCISGGDGRSYYADSVKGRFTVSSDNAKNTLYLEMNSLKPEDTAVYYCAVIWGPYCSDSYEYLYEYDYWGQGTQVTVSS
Take B1: the MCF with human HER1 [1] was found to be 67; with human HER2 [6], 832; with human HER4 [8], 101; in the test with human HER1 [9], 153; in the test with human HER2 [12], 97; in the test with human HER4 [14], 343. For the same molecule, the MCF with human HER4 [15] turned out to be 95; in the test with human HER2 [18], 264; with human HER1 [21], 67. In the test with hHER3 full length [2], this molecule had an IC50 of 9.44 nM. Besides, the binding result with human HER2 [3] is recorded as “no binding (tested: 2000 nM)”; in [11], “binds”; in the test with human HER1 [17], “no binding (tested: 2000 nM)”; with human HER4 [22], “no binding (tested: 2000 nM)”. The “IC50, HRG1-β1 induced pAkt, MCF-7” value with hHER3 full length [4] stood at 4.65e-08 M. In the test with hHER3 full length [4], the “inhibition of HRG1-β1 induced pERK1/2, MCF-7” value is less than 50 % inhibition. In addition, the concentration for a half-maximal effect (EC50) amounted to 0.44 nM in test [5] and 0.46 nM in test [25]. This molecule also gave a Kd in [7] of 0.99 nM. The molecule also registered a kon in test [7] of 3.1e+06 M⁻¹ s⁻¹. Further, the “% competition” value stood at 100% with hHER3 full length [10]; 16% in the test with hHER3 full length [13]; 6% with hHER3 full length [16]; 8% with hHER3 full length [19]; 15% in the test with hHER3 full length [20]; 100% in the test with hHER3 full length [24]. The “IC50, HRG1-β1 induced pHER3, MCF-7” value with hHER3 full length [23] was determined as 1.77e-08 M. Further, the “IC50, HRG1-β1 induced pHER3, MDA-MB468” value with hHER3 full length [23] was found to be 2.41e-08 M.

B2: HER3MS00125 (VHH)
VHH: EVQLVESGGGLVQPGGSLRLSCAASGTLFKINAMGWYRQAPGKQRELVALITSSDTTDYAEDVKGRFTISRDNSWNTVYLQMNSLRPEDTAVYYCHSDHYSLGVPEKRVILYGQGTLVTVSS
notes: 18G11 second round variant with R44Q
Molecule B2 registered an IC50 in test [26] of 14 nM. Besides, the koff in test [27] was 0.0012 s⁻¹.

B3: 21B02 (VHH)
VHH: EVQLVESGGGLVQPGGSLRLSCAASGFTFDYYTIGWFRQAPGKEREGVSCISSRDGDSYYADSVKGRFTISRDNAKNTAYLQMNSLKPEDTAVYYCAASASDYGLGLELFHDEYNYWGQGTQVTVSS
B3: the MCF stood at 53 with human HER1 [1]; 8570 with human HER2 [6]; 119 in the test with human HER4 [8]; 64 with human HER1 [9]; 1340 with human HER2 [12]; 91 with human HER4 [14]. Besides, the MCF with human HER4 [15] amounted to 273; in the test with human HER2 [18] it was 3610; with human HER1 [21] it was 64. Also, in the test with hHER3 full length [2], the IC50 was 13.3 nM. The “IC50, HRG1-β1 induced pAkt, MCF-7” value in the test with hHER3 full length [4] was found to be 6.9e-08 M. Besides, the “inhibition of HRG1-β1 induced pERK1/2, MCF-7” value with hHER3 full length [4] is less than 50 % inhibition. Further, the EC50 was 0.9 nM in test [5] and 1.1 nM in test [25]. Also, binding in test [7] was characterised by a dissociation constant (Kd) of 1.22 nM. Further, the kon in test [7] is 2.2e+06 M⁻¹ s⁻¹. Besides, the “% competition” value with hHER3 full length [10] turned out to be 98%; with hHER3 full length [13], 20%; in the test with hHER3 full length [16], 10%; with hHER3 full length [19], 17%; in the test with hHER3 full length [20], 15%; with hHER3 full length [24], 100%. The values for the binding result (in test [11]; with human HER1 [17]; with human HER4 [22]) were “binds”, “no binding (tested: 2000 nM)” and “no binding (tested: 2000 nM)”, respectively. Further, the “IC50, HRG1-β1 induced pHER3, MCF-7” value with hHER3 full length [23] was found to be 4.88e-08 M. Further, in the test with hHER3 full length [23], the “IC50, HRG1-β1 induced pHER3, MDA-MB468” value stood at 9.99e-08 M.

B4: HER3MS00049 (VHH)
VHH: EVQLVESGGGLVQPGGSLRLSCAASGRTYYLNAMGWFRQAPGKEREFVAAIDWSDGNKDYADSVKGRFTISRDNSKNTVYLQMNSLRPEDTAVYYCAADTPPWGPMIYIESYDSWGQGTLVTVSS
notes: 21F06 basic + G40A + D44E; also called HER3MS0049
B4: in the test with hHER3 full length [28], the “IC50 pHER3, HRG1-β1 stimulated MCF7” value amounted to 2.79e-09 M. This molecule also gave an IC50 in test [29] of 0.25 nM.
